Source: patent publication US20230075753A1 (UCB, published 2023)
“And” between values parts separate entries of the source, which are not always exact repeats. Equal entries are not always repeated. Each block holds one binder with its values, some of them ahead of it.

How the values were obtained:
Active human KLK5 [1] = molecular target: T1, Active human KLK5 (human, UniProt Q9Y337 67-293); assay: SPR, Biacore T200, 25 C; reference 10236gL6gH12
T1 construct: glycosylated; also called Hu KLK5; KLK5 analyte (prepared in house)
Method: (§1) A goat anti-human IgG Fc specific antibody (Jackson ImmunoResearch) was immobilized on a CM5 Sensor Chip via amine coupling chemistry to a level of approximately 6000RU. Each analysis cycle consisted of capture of the anti-KLK5 IgG molecules to the anti Fc surface, injection of KLK5 analyte (prepared in house) for 300 s at 30 μl/min followed by 600 s dissociation. At the end of each cycle the surface was regenerated at a flowrate of 10 μL/min using a 60 s injection of 50 mM HCl followed by a 30 s injection of 5 mM NaOH and a final 60 s injection of 50 mM HCl. Human KLK5 was titrated from 20 nM to 0.03 nM (6×3-fold serial dilutions) in HBS-EP+ running buffer (GE Healthcare) supplemented to a final concentration of 300 mM NaCl. Buffer blank injections were included to subtract instrument noise and drift. Kinetic parameters were determined using a 1:1 binding model using Biacore T200 Evaluation software (version 3.0).

Active human KLK5 [2] = molecular target: T1, Active human KLK5; assay: SPR, Biacore T200, 25 C; IgG captured on anti-human Fc, human KLK5 as analyte (20-0.03 nM), 1:1 model
Method: The kinetics of binding of both antibodies 10236gL6gH12 and 10236gL6-N94DgH12 to human KLK5 were assessed by surface plasmon resonance (Biacore T200, GE Life Sciences™) at 25° C. to assess the impact of 100% deamidation.
as §1

Active cyno KLK5 [3] = molecular target: T2, Active cyno KLK5 (cynomolgus monkey, UniProt Q9Y337 67-293 (human entry)); assay: cell-based or functional assay
T2 chain: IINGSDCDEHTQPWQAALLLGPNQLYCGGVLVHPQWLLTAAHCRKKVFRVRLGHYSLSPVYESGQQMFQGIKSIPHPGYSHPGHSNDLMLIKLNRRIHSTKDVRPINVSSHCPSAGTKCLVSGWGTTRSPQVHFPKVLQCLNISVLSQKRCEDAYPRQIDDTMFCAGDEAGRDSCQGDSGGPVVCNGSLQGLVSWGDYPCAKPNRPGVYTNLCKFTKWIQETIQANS

Active human KLK5 [4] = molecular target: T1, Active human KLK5; assay: SPR; average of the 2 runs of Table 15
Active human KLK5 [5] = molecular target: T1, Active human KLK5; assay: SPR, Biacore T200, 25 C; IgG from supernatant captured on anti-human Fc, human KLK5 as analyte (20-0.08 nM), 1:1 model
Method: (§2) A goat anti-human IgG Fc specific antibody (Jackson ImmunoResearch) was immobilized on a CM5 Sensor Chip via amine coupling chemistry to a level of approximately 6000RU. Each analysis cycle consisted of capture of the anti-KLK5 IgG from supernatants to the anti Fc surface, injection of KLK5 analyte (prepared in house) for 180 s at 30 μl/min followed by 600 s dissociation. At the end of each cycle the surface was regenerated at a flowrate of 10 μL/min using a 60 s injection of 50 mM HCl followed by a 30 s injection of 5 mM NaOH and a final 60 s injection of 50 mM HCl. Human KLK5 was titrated from 20 nM to 0.08 nM (5×3-fold serial dilutions) for the supernatant in HBS-EP+ running buffer (GE Healthcare®) supplemented to a final concentration of 300 mM NaCl. Buffer blank injections were included to subtract instrument noise and drift. Kinetic parameters were determined using a 1:1 binding model using Biacore T200 Evaluation software (version 3.0). Experiments were carried out at 25° C.

Active human KLK5 [6] = molecular target: T1, Active human KLK5; assay: SPR, Biacore T200, 25 C; IgG from supernatant captured on anti-human Fc, human KLK5 as analyte (20-0.08 nM), 1:1 model; run at the start or end of the assay
Method: as §2

Active human KLK5 [7] = molecular target: T1, Active human KLK5; assay: SPR, Biacore T200, 25 C; IgG from supernatant captured on anti-human Fc, human KLK5 as analyte (20-0.08 nM), 1:1 model; second run of the chimera; second run of the chimera (start and end of the assay)
Method: as §2

Active human KLK5 [8] = molecular target: T1, Active human KLK5; assay: cell-based or functional assay
Active cyno KLK5 [9] = molecular target: T2, Active cyno KLK5; assay: cell-based or functional assay
Active human KLK5 [10] = molecular target: T1, Active human KLK5; assay: SPR, Biacore T200, 25 C; mIgG captured on anti-mouse Fc, human KLK5 as analyte (20-0.25 nM), 1:1 model
Method: The kinetics of murine IgG molecules binding to human KLK5 were assessed by surface plasmon resonance (Biacore T200, (GE Life Sciences™) at 25° C.
Kinetic parameters were determined using a 1:1 binding model using Biacore T200 Evaluation software.

Active human KLK5 [11] = molecular target: T1, Active human KLK5; assay: SPR; repeats Table 3 (footnote: as described in example 4 and Table 3)

B3: Humanized antibody 10236 gL6 gH11 (antibody, V domains shown)
VH: EVQLQESGPGLVKPSGTLSLTCAVSGFPLSNYAMSWVRQPPGKGLEWIGDIYPSDIIDYASWAKGRVTISQDKSKTQVSLKLSSVTAADTAVYYCARDNNDYGLDIWGQGTLVTVSS
VL: AYDMTQSPSSLSASVGDRVTITCQASQSISSWLAWYQQKPGKAPKLLIYLASTLASGVPSRFSGSGSGTDFTLTISSLQPEDFATYYCQQGYTNSNIINTFGGGTKVEIKR
notes: Tested as IgG from supernatant captured by anti-human Fc
- Kd (Active human KLK5 [5]): 0.475 nM
- koff (Active human KLK5 [5]): 0.000802 s⁻¹
- kon (Active human KLK5 [5]): 1.69e+06 M⁻¹ s⁻¹

B4: Rabbit/human antibody 10236 (chimera) (antibody, human IgG4 S228P, kappa)
light: AYDMTQTPASVEVAVGGTVTIKCQASQSISSWLAWYQQKPGQPPKLLIYLASTLASGVSSRFKGSGSGTQFTLTISGVECADAATYYCQQGYTNSNIINTFGGGTEVVVKRTVAAPSVFIFPPSDEQLKSGTASVVCLLNNFYPREAKVQWKVDNALQSGNSQESVTEQDSKDCTYSLSSTLTLSKADYEKHKVYACEVTHQGLSSPVTKSFNRGEC
heavy: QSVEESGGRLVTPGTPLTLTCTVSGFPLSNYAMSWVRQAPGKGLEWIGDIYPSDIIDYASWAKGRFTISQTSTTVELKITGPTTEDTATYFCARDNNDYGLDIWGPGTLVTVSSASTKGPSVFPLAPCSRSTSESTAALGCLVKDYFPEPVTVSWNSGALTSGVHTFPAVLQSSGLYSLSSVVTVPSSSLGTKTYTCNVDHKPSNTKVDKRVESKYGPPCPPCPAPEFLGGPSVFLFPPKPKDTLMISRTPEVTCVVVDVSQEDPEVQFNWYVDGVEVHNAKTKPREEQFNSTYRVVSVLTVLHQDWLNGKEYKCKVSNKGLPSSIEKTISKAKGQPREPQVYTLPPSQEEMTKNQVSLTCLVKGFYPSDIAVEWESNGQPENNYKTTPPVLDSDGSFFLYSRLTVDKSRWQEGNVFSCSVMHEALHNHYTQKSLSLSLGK
notes: also called rabbit/human chimera antibody
- Kd (Active human KLK5 [6]): 0.168 nM
- koff (Active human KLK5 [6]): 0.000451 s⁻¹
- kon (Active human KLK5 [6]): 2.69e+06 M⁻¹ s⁻¹
- Kd (Active human KLK5 [7]): 0.152 nM
- koff (Active human KLK5 [7]): 0.000409 s⁻¹
- kon (Active human KLK5 [7]): 2.7e+06 M⁻¹ s⁻¹

B7: Rabbit antibody 10236 mIgG (rabbit variable regions on mouse constant regions) (antibody)
light: AYDMTQTPASVEVAVGGTVTIKCQASQSISSWLAWYQQKPGQPPKLLIYLASTLASGVSSRFKGSGSGTQFTLTISGVECADAATYYCQQGYTNSNIINTFGGGTEVVVKRTDAAPTVSIFPPSSEQLTSGGASVVCFLNNFYPKDINVKWKIDGSERQNGVLNSWTDQDSKDCTYSMSSTLTLTKDEYERHNSYTCEATHKTSTSPIVKSFNRNEC
heavy: QSVEESGGRLVTPGTPLTLTCTVSGFPLSNYAMSWVRQAPGKGLEWIGDIYPSDIIDYASWAKGRFTISQTSTTVELKITGPTTEDTATYFCARDNNDYGLDIWGPGTLVTVSSAKTTPPSVYPLAPGSAAQTNSMVTLGCLVKGYFPEPVTVTWNSGSLSSGVHTFPAVLQSDLYTLSSSVTVPSSTWPSETVTCNVAHPASSTKVDKKIVPRDCGCKPCICTVPEVSSVFIFPPKPKDVLTITLTPKVTCVVVDISKDDPEVQFSWFVDDVEVHTAQTQPREEQFNSTFRSVSELPIMHQDWLNGKEFKCRVNSAAFPAPIEKTISKTKGRPKAPQVYTIPPPKEQMAKDKVSLTCMITDFFPEDITVEWQWNGQPAENYKNTQPIMDTDGSYFVYSKLNVQKSNWEAGNTFTCSVLHEGLHNHHTEKSLSHSPGK
- IC50 (M), inhibition of kallikrein protease activity (fluorogenic peptide substrate) (Active human KLK5 [8]): 2.4e-10 M
- IC50 (M), inhibition of kallikrein protease activity (fluorogenic peptide substrate) (Active cyno KLK5 [9]): 3.3e-11 M
- Kd (Active human KLK5 [11]): 0.172 nM
- koff (Active human KLK5 [11]): 0.000517 s⁻¹
- kon (Active human KLK5 [11]): 3e+06 M⁻¹ s⁻¹
- Kd (Active human KLK5 [10]): 0.172 nM
- koff (Active human KLK5 [10]): 0.000517 s⁻¹
- kon (Active human KLK5 [10]): 3e+06 M⁻¹ s⁻¹

Now from value to binder:

- fold decrease of affinity against 10236gL6gH12 (Active human KLK5 [1]): 4.5 fold
- Kd (Active human KLK5 [2]): 1.25 nM
- koff (Active human KLK5 [2]): 0.00486 s⁻¹
- kon (Active human KLK5 [2]): 3.89e+06 M⁻¹ s⁻¹
B1: Antibody 10236 gL6-N94DgH12 (IgG4P) (antibody, V domains shown)
VH: EVQLQESGPGLVKPSGTLSLTCAVSGFPLSNYAMSWVRQPPGKGLEWIGDIYPSDIIDYASWAKGRVTISQDSSKNQVSLKLSSVTAADTAVYYCARDNNDYGLDIWGQGTLVTVSS
VL: AYDMTQSPSSLSASVGDRVTITCQASQSISSWLAWYQQKPGKAPKLLIYLASTLASGVPSRFSGSGSGTDFTLTISSLQPEDFATYYCQQGYTDSNIINTFGGGTKVEIKR
notes: surrogate for the fully deamidated product of 10236gL6gH12

- IC50 (read off the curve) (Active cyno KLK5 [3]): ~0.1 nM
- Kd (Active human KLK5 [4]): 0.299 nM
- Kd (Active human KLK5 [2]): 0.314 nM and 0.283 nM
- koff (Active human KLK5 [2]): 0.000711 s⁻¹ and 0.000658 s⁻¹
- kon (Active human KLK5 [2]): 2.26e+06 M⁻¹ s⁻¹ and 2.33e+06 M⁻¹ s⁻¹
- Kd (Active human KLK5 [5]): 0.324 nM
- koff (Active human KLK5 [5]): 0.00066 s⁻¹
- kon (Active human KLK5 [5]): 2.04e+06 M⁻¹ s⁻¹
B2: Humanized antibody 10236 gL6gH12 (antibody, V domains shown)
VH: EVQLQESGPGLVKPSGTLSLTCAVSGFPLSNYAMSWVRQPPGKGLEWIGDIYPSDIIDYASWAKGRVTISQDSSKNQVSLKLSSVTAADTAVYYCARDNNDYGLDIWGQGTLVTVSS
VL: AYDMTQSPSSLSASVGDRVTITCQASQSISSWLAWYQQKPGKAPKLLIYLASTLASGVPSRFSGSGSGTDFTLTISSLQPEDFATYYCQQGYTNSNIINTFGGGTKVEIKR
notes: also called Ab10236gL6gH12

- IC50 (M), inhibition of kallikrein protease activity (fluorogenic peptide substrate) (Active human KLK5 [8]): 1.74e-10 M
- IC50 (M), inhibition of kallikrein protease activity (fluorogenic peptide substrate) (Active cyno KLK5 [9]): 2.76e-11 M
B5: Rabbit antibody 10236 (rabbit IgG) (antibody, V domains shown)
VL: AYDMTQTPASVEVAVGGTVTIKCQASQSISSWLAWYQQKPGQPPKLLIYLASTLASGVSSRFKGSGSGTQFTLTISGVECADAATYYCQQGYTNSNIINTFGGGTEVVVK
VH: QSVEESGGRLVTPGTPLTLTCTVSGFPLSNYAMSWVRQAPGKGLEWIGDIYPSDIIDYASWAKGRFTISQTSTTVELKITGPTTEDTATYFCARDNNDYGLDIWGPGTLVTVSS

- IC50 (M), inhibition of kallikrein protease activity (fluorogenic peptide substrate) (Active human KLK5 [8]): 3.48e-11 M
- IC50 (M), inhibition of kallikrein protease activity (fluorogenic peptide substrate) (Active cyno KLK5 [9]): 3.01e-10 M
- Kd (Active human KLK5 [10]): 0.16 nM
- koff (Active human KLK5 [10]): 0.000184 s⁻¹
- kon (Active human KLK5 [10]): 1.14e+06 M⁻¹ s⁻¹
B6: Rabbit antibody 10273 mIgG (rabbit variable regions on mouse constant regions) (antibody, V domains shown)
VH: QSVEESGGRLVTPGTPLTLTCTVSGFSLSSYGMSWVRQAPGKGLEWIGIISSSGSTYYASWAKGRFTISKTSTTVDLKIASPTTEDTATYFCARDHIYRYDDYGDYPTYYGMDPWGPGTLVTVSS
VL: AVVLTQTPSPMSAAVGGTVTISCQSSQSVYNNNDLAWYQQKPGQPPKLLIYRASTLASGVPSRFSGSGSGTQFTLTISGVQCDDAATYYCLGGYDDDVDTYTFGGGTEVVVKR
